Experiment [1] addresses T1, HCoV-OC43 trimeric S protein (amino acids 12-1299) with T4 foldon, histidine tag and strep-tag (HCoV-OC43, UniProt P36334 12-1291).
T1 chain: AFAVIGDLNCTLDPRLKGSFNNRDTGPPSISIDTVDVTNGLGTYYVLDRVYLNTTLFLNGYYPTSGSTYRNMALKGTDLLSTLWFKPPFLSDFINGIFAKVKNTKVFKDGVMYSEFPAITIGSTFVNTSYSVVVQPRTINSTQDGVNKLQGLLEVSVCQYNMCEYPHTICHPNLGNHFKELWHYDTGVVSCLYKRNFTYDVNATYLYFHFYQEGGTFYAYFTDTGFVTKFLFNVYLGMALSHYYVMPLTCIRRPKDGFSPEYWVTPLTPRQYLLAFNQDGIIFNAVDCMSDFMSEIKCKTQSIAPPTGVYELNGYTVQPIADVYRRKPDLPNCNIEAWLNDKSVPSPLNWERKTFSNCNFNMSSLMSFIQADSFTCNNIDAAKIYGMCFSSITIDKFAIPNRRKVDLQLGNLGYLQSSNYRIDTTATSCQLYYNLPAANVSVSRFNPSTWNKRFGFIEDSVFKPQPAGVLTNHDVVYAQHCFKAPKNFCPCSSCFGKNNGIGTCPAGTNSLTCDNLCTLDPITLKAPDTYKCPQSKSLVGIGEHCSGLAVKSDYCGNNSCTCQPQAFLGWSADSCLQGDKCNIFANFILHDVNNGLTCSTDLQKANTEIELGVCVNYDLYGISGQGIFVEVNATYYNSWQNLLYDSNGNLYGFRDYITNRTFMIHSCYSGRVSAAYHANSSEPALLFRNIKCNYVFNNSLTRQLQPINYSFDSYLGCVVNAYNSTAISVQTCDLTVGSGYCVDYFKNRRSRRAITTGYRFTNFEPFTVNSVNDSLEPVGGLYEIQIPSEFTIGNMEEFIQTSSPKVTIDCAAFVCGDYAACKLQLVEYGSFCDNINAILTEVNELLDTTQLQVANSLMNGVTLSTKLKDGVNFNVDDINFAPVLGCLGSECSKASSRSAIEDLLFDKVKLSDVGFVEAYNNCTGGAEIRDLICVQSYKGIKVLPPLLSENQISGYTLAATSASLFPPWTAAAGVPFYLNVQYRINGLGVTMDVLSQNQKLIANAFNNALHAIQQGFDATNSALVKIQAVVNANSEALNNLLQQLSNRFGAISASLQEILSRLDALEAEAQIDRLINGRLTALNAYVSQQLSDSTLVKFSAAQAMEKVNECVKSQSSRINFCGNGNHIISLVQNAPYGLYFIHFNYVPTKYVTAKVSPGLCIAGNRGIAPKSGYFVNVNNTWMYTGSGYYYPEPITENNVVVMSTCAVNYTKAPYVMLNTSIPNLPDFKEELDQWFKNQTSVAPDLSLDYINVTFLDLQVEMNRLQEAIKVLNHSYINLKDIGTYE
Description: ELISA on coated S-trimeric antigen, anti-human IgG-HRP [Human IgG1, NT-193]. (ELISA stands for enzyme-linked immunosorbent assay.)

Experiment [2] concerns the target T2, HCoV-HKU1 trimeric S protein (amino acids 13-1293) with T4 foldon, histidine tag and strep-tag (HCoV-HKU1, UniProt Q5MQD0 13-1297).
T2 sequence: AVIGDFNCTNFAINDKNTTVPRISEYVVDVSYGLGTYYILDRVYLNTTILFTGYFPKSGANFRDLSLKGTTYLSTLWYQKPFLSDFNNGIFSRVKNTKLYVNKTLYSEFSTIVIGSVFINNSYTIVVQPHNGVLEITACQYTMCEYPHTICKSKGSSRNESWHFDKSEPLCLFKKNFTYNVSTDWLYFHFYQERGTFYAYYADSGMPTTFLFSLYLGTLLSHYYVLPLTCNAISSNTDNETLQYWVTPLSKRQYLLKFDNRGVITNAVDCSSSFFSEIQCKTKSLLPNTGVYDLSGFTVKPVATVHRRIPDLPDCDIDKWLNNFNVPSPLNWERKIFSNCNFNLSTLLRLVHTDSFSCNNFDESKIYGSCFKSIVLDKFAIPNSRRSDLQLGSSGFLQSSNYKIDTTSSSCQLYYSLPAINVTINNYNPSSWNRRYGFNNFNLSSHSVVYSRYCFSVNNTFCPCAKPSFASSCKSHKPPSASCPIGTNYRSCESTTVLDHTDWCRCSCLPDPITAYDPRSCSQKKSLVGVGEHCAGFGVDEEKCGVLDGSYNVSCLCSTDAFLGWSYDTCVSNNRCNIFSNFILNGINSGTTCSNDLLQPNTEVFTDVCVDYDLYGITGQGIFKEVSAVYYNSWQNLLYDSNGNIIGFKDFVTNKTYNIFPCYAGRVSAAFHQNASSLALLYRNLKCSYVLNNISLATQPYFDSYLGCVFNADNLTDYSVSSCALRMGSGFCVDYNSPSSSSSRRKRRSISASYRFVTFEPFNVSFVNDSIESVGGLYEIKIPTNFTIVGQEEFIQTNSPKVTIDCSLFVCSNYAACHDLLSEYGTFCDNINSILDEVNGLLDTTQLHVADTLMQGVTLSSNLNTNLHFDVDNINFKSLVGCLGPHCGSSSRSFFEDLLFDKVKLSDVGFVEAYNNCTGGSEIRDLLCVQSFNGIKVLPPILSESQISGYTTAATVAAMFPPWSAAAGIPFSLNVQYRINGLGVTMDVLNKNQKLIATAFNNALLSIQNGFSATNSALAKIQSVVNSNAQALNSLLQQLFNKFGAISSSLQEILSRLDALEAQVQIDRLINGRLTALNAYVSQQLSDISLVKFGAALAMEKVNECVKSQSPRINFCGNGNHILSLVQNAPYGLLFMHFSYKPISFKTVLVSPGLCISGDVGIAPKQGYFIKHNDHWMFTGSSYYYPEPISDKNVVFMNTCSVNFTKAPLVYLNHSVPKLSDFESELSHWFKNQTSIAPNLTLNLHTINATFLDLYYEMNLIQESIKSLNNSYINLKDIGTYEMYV
The description is as above.

B1: NT-193 (recombinant human IgG1/kappa antibody) (antibody, V domains shown)
VH: EVQLQQWGAGLLKPSETLSLTCAVYGGSFSGYYWSWIRQPPGKGLEWIGEINHSGSTNYNPSLKSRVTISVDTSKNQFSLKLSSVTAADTAVYYCARGWDLDYYYGMDVWGQGTTVTVSS
VL: DIRMTQSPSAMSASVGDRVTVTCRASQGIGNYLAWFQLKPGKVPKRLIYAASSLQSGVPARFSGGGSGTEFTLTISSLQPEDFATYYCLQHGFLPWTFGQGTKLEIK
With B1, the binding result in experiment [1] and in experiment [2] was “no binding (tested: 1000 ng/ml)” in each case.

The record behind these values is US20240287161A1 (NATIONAL UNIVERSITY CORPORATION TOTTORI UNIVERSITY, published 2024).
